Reference: US20080081903A1, “METHOD FOR SCREENING TRANSCRIPTIONAL COREGULATORY PROTEINS OF TRANSCRIPTION FACTORS, AND ANDROGEN RECEPTOR TRANSCRIPTIONAL COREGULATORY PROTEINS AS TARGETS FOR ANDROGEN RECEPTOR-DEPENDENT DISEASES” (NEW YORK UNIVERSITY, priority 2001, published 2008)

Target: T1, androgen receptor N-terminus (AR18-500) (Rattus norvegicus, UniProt P15207)
T1 construct: receptor residues 18 through 500 (using the rat androgen receptor number scheme); expressed in transfected cells; host or cells: Saccharomyces cerevisiae EGY188
T1 sequence (P15207 18-500): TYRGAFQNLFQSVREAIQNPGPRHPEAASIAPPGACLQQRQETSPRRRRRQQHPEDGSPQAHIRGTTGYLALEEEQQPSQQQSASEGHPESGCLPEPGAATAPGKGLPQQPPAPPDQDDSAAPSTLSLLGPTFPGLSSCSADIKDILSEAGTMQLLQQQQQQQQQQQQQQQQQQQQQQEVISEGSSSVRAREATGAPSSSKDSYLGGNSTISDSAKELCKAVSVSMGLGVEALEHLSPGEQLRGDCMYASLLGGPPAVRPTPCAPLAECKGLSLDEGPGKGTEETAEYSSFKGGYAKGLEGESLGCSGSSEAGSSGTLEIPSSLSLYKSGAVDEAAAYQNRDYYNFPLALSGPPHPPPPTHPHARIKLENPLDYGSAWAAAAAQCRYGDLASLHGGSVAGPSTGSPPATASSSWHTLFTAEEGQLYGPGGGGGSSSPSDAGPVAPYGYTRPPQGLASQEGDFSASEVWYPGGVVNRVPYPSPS
Assay: Modified yeast two-hybrid, quantitative liquid beta-galactosidase assay
Format: binding
Settings: LexA-ART fusions vs AR18-500; twelve hour incubation in galactose-containing media
Protocol: The modified yeast two hybrid assay is described in Hittelman et al., 1999. EGY188 was transformed by the lithium acetate method with (i) pJG4-5:AR18-500, (ii) pEG202:LNCaP cell cDNA library and (iii) pJK103, a β-galactosidase reporter gene with a single LexA operator. Potential interacting proteins were selected by plating the cDNA library expressing transformants onto galactose plates lacking leucine and containing X-gal.
Yeast were grown in selective liquid media containing 2% glucose for approximately 12 hours, pelleted, washed once with sterile H2O, normalized according to cell number and resuspended to an optical density (OD600) of 0.15 in 2% galactose/1% raffinose. β-galactosidase assays were performed 12 hours later as described previously (Garabedian et al., 1992).
Out of approximately one million library transformants, eight clones were isolated that interact with the androgen receptor N-terminus. There protein factors were termed ARTs, for Androgen Receptor Trapped, by the present inventors. The eight ART clones were sequenced and were subjected to a database search using the BLAST program. A quantitative liquid beta-galactosidase assay was used to measure the relative strength of interaction between the androgen receptor N-terminus and the ARTs using the yeast two-hybrid system. The levels of expression of the ARTs in yeast were similar, as determined by immunoblotting using an antibody to the LexA DNA-binding domain that is common to all of the ARTs.
ARTs expressed as fusion proteins with the LexA DNA binding domain were analyzed for their ability to interact with AR18-500. The relative strength of interaction was determined by a quantitative liquid beta-galactosidase assay after a twelve hour incubation in galactose-containing media at 30EC. The LexA vector alone gives 1 unit of activity.

- relative strength of interaction with androgen receptor N-terminus: strongest
B1: ART-5: Androgen Receptor Trapped protein, SEQ ID NO:4, unknown function, represented in EST database (protein)
chain: MHNPDGSASPTADPGSELQTLGQAARRPPPPRAGHDAPRRTRPSARKPLSCFSRRPMPTREPPKTRGSRGHLHTHPPGPGPPLQGLAPRGLKTSAPRPPCQPQPGPHKAKTKKIVFEDELLSQALLGAKKPIGAIPKGHKPRPHPVPDYELKYPPVSSERERSRYVAVFQDQYGEFLELQHEVGCAQAKLRQLEALLSSLPPPQSQKEAQVAARVWREFEMKRMDPGFLDKQARCHYLKGKLRHLKTQIQKFDDQGDSEGSVYF
modifications: Human
